Patent US20240018237A1 (SICHUAN KELUN BIOTECH BIOPHARMACEUTICAL, published 2024)
Changes are numbered by the printed parent chain. Values belong to the binder of their own block, whether it stands above or below them.

Tests used:
[1] = target: T1, human ROR1 (full-length, on the cell surface) (human, UniProt Q01973 30-937); experiment: flow cytometry, Ba/F3-ROR1 cells
T1 construct: whole, on cells; the tumour cell lines carry their own ROR1; also called Ba/F3-ROR1 cells; Jeko-1
Description: (§1) The affinities of the anti-human ROR1 humanized antibodies to Ba/F3-ROR1, Jeko-1, HT-29 and A549 cells were detected by flow cytometry. The specific experimental steps were as follows: the BaBF3-ROR1, Jeko-1, HT-29 and A549 cells were incubated with the purified humanized antibodies of different concentration gradients on ice for 30 minutes, and the anti-ROR1 antibody UC961 with human IgG1 and the anti-TNP antibody were used as positive and negative controls, respectively.

[2] = target: T1, human ROR1 (full-length, on the cell …); experiment: cell-based or functional assay
[3] = target: T1, human ROR1 (full-length, on the cell …); experiment: flow cytometry, A549 cells
Description: as §1

[4] = target: T1, human ROR1 (full-length, on the cell …); experiment: flow cytometry, HT-29 cells
Description: as §1

[5] = target: T2, human ROR1 ECD protein (human, UniProt Q01973 30-406); experiment: BLI (Octet), antibody on AHC sensor, ROR1 ECD in solution, 1:1 model
T2 construct: range 30-406; Expressed in Expi293 or ExpiCHO cells; also called Recombinant human ROR ECD
T2 sequence (Q01973 30-406): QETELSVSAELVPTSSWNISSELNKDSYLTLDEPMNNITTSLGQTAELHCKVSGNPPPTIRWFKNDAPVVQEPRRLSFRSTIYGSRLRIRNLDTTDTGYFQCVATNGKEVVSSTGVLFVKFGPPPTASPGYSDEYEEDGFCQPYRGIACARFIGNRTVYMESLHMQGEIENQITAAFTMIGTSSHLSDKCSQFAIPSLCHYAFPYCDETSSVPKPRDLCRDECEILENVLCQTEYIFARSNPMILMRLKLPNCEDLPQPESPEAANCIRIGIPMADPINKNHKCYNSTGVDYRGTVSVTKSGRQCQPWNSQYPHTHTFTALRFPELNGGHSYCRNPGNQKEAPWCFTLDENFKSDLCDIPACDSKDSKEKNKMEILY
Description: The dynamic affinities of humanized molecules 19F6-Hu35V1, 3D8-HuC24 and 38F8-Hu57 and positive control antibody UC961 to human ROR1 ECD protein were determined by Octet ForteBio method.

[6] = target: T1, human ROR1 (full-length, on the cell …); experiment: flow cytometry, Jeko-1 cells
Description: as §1

[7] = target: T2, human ROR1 ECD protein; experiment: BLI (Octet), antibody on AHC sensor, ROR1 ECD in solution
[8] = target: T1, human ROR1 (full-length, on the cell …); experiment: cell-based or functional assay; remark: listed apart in the source
[9] = target: T1, human ROR1 (full-length, on the cell …); experiment: flow cytometry, Ba/F3-ROR1 cells; remark: listed apart in the source

T1 sequence (Q01973 30-937): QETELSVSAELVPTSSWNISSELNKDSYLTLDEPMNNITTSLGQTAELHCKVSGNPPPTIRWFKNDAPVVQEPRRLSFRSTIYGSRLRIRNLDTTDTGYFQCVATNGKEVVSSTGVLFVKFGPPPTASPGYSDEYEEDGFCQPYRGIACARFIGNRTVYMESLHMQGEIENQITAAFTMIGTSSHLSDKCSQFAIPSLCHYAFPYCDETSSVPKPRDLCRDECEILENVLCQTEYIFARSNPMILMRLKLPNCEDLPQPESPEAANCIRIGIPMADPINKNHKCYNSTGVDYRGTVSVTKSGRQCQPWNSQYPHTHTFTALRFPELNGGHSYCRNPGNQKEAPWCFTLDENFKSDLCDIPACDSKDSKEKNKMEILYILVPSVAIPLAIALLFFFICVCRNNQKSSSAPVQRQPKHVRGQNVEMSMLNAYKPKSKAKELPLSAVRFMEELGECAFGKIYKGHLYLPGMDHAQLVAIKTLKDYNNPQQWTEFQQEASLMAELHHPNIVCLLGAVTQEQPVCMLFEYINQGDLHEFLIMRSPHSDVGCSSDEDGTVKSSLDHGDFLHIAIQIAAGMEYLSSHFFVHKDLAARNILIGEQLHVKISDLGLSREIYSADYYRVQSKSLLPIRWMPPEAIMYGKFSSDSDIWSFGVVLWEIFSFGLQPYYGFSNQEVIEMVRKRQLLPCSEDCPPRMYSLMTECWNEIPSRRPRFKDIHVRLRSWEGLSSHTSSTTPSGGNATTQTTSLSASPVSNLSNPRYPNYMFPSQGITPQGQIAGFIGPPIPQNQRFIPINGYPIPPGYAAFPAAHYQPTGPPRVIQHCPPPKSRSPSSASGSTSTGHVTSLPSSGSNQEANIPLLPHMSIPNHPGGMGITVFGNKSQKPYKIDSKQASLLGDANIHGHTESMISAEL

B1: 3D8-HuC24 (antibody, human IgG1, kappa, V domains shown)
VH: EVQLVESGGGLVQPGGSLRLSCAASGFTFSSYAMSWVRQAPGKGLEWVASINSGGSTYYPDSVKGRFTISRDNAKNSLYLQMNSLRAEDTAVYYCARVNYYGYGDYAMDYWGQGTLVTVSS
VL: DIQMTQSPSSLSASVGDRVTITCQASQDISNYLTWFQQKPGKSPKTLIHRANRLVTGVPSRFSGSGSGTDFTFTISSLQPEDIATYYCLQYDEFPYTFGGGTKVEIKR
notes: humanized, human IgG1 / kappa
EC50 [1]: 230 pM
EC50 of ADCC killing of Ba/F3-ROR1 cells by NK92MI-mCD16a-hFceRI cells [2]: 280 pM
EC50 [3]: 290 pM
EC50 [4]: 170 pM
Kd [5]: 26100 pM
koff [5]: 0.0153 s⁻¹
kon [5]: 586000 M⁻¹ s⁻¹
EC50 [6]: 40 pM

B3: 19F6-Hu35V1 (antibody, human IgG1, kappa, V domains shown)
VH: QVQLQESGPGLVKPSQTLSLTCTVSGYSITSDYAWNWIRQFPGKGLEWIGYISYSGSIRYNPSLKSRVTISRDTSKNQFSLKLSSVTAADTAVYYCARGEITYYFDYWGQGTLVTVSS
VL: ETTLTQSPAFMSATPGDKVTISCKASTSIDDDMNWYQQKPGEPPKLIISEGNTLRPGIPPRFSSSGYGTDFTFTINKIKSEDAATYYCLQSNDLPLTFGQGTKLEIKR
notes: humanized, human IgG1 / kappa
fold stronger affinity than UC961 (by KD) [7]: 5.4 fold
internalization activity in N87 cells (pHrodo dye), fold over UC961 [8]: ~7 fold
EC50 [9]: 170 pM
EC50 of ADCC killing of Ba/F3-ROR1 cells by NK92MI-mCD16a-hFceRI cells [2]: 310 pM
EC50 [3]: 80 pM
EC50 [4]: 150 pM
Kd [5]: 1610 pM
koff [5]: 0.000863 s⁻¹
kon [5]: 538000 M⁻¹ s⁻¹
EC50 [6]: 120 pM

B4: 19F6-Hu14 (antibody, human IgG1, kappa, V domains shown)
VH: B3 VH with Q16E, S25T, F41P, I49M, N61K, S66D, V68I
VL: DIQMTQSPSSLSASVGDRVTITCQTSTDIDDDLNWYQQKPGKPPKLLISEGNTLETGVPSRFSGSGSGTDFTFTISSLQPEDIADYYCLQSNDLPLTFGAGTKLEIKR
notes: humanized, human IgG1 / kappa
EC50 [9]: 620 pM
EC50 [3]: 120 pM
EC50 [4]: 100 pM
EC50 [6]: 120 pM

B5: 19F6-Hu22 (antibody, human IgG1, kappa, V domains shown)
VH: B3 VH with Q16E, F41P, I49M, S66D, V68I
VL: DIQMTQSPSSLSASVGDRVTITCITTTDIDDDMNWYQQKPGKAPKLLISEGNTLQSGVPSRFSGSGYGTDFTLTISSLQPEDFATYYCLQSNDLPLTFGQGTKLEIKR
notes: humanized, human IgG1 / kappa
EC50 [9]: 300 pM
EC50 [3]: 250 pM
EC50 [4]: 160 pM
EC50 [6]: 130 pM

B7: 19F6-Hu24 (antibody, human IgG1, kappa, V domains shown)
VH: B3 VH with Q16E, F41P, I49M, S66D, V68I
VL: B4 VL
notes: humanized, human IgG1 / kappa
EC50 [9]: 390 pM
EC50 [3]: 240 pM
EC50 [4]: 250 pM
EC50 [6]: 200 pM

B9: 19F6-Hu32 (antibody, human IgG1, kappa, V domains shown)
VH: B3 VH
VL: B5 VL
notes: humanized, human IgG1 / kappa
EC50 [9]: 440 pM
EC50 [3]: 90 pM
EC50 [4]: 90 pM
EC50 [6]: 180 pM

B10: 19F6-Hu13 (antibody, human IgG1, kappa, V domains shown)
VH: B3 VH with Q16E, S25T, F41P, I49M, N61K, S66D, V68I
VL: B5 VL with I24R, T25A, T26S, S49Y
notes: humanized, human IgG1 / kappa
EC50 [9]: 290 pM
EC50 [3]: 470 pM
EC50 [4]: 750 pM
EC50 [6]: 170 pM

B11: 19F6-Hu33 (antibody, human IgG1, kappa, V domains shown)
VH: B3 VH
VL: B5 VL with I24R, T25A, T26S, S49Y
notes: humanized, human IgG1 / kappa
EC50 [9]: 350 pM
EC50 [3]: 250 pM
EC50 [4]: 780 pM
EC50 [6]: 150 pM

B14: 19F6-Hu31 (antibody, human IgG1, kappa, V domains shown)
VH: B3 VH
VL: B5 VL with Q55R, S56P
notes: humanized, human IgG1 / kappa
EC50 [9]: 300 pM
EC50 [3]: 90 pM
EC50 [4]: 100 pM
EC50 [6]: 180 pM

B16: 19F6-Hu21 (antibody, human IgG1, kappa, V domains shown)
VH: B3 VH with Q16E, F41P, I49M, S66D, V68I
VL: B5 VL with Q55R, S56P
notes: humanized, human IgG1 / kappa
EC50 [9]: 360 pM
EC50 [3]: 310 pM
EC50 [4]: 180 pM
EC50 [6]: 220 pM

The next lines start with results.

EC50 [1]: 750 pM
EC50 [3]: 230 pM
EC50 [4]: 330 pM
Kd [5]: 10000 pM
koff [5]: 0.00242 s⁻¹
kon [5]: 241000 M⁻¹ s⁻¹
EC50 [6]: 70 pM
B2: 38F8-Hu57 (antibody, human IgG1, kappa, V domains shown)
VH: EVQLVESGGGLVQPGGSLRLSCAASGFTFSNYAMSWVRQAPEKRLEWVASISSGGPTYYPDSVKGRFTVSRDNSKNTLYLQMNSLRAEDTAVYYCARGYRYDVNWYFDVWGAGTMVTVSS
VL: B1 VL with F71Y, T85I
notes: humanized, human IgG1 / kappa
EC50 of ADCC killing of Ba/F3-ROR1 cells by NK92MI-mCD16a-hFceRI cells [2]: 190 pM

EC50 [9]: 530 pM
EC50 [3]: 130 pM
EC50 [4]: 190 pM
EC50 [6]: 180 pM
B6: 19F6-Hu34 (antibody, human IgG1, kappa, V domains shown)
VH: B3 VH
VL: B4 VL
notes: humanized, human IgG1 / kappa

EC50 [9]: 430 pM
EC50 [3]: 160 pM
EC50 [4]: 110 pM
EC50 [6]: 170 pM
B8: 19F6-Hu12 (antibody, human IgG1, kappa, V domains shown)
VH: B3 VH with Q16E, S25T, F41P, I49M, N61K, S66D, V68I
VL: B5 VL
notes: humanized, human IgG1 / kappa

EC50 [9]: 270 pM
EC50 [3]: 120 pM
EC50 [4]: 170 pM
EC50 [6]: 350 pM
B12: 19F6-Hu35V10 (antibody, human IgG1, kappa, V domains shown)
VH: B3 VH
VL: B3 VL with S28D, D31S, E42K, N76R, K79E, T85D
notes: humanized, human IgG1 / kappa

EC50 [9]: 350 pM
EC50 [3]: 140 pM
EC50 [4]: 620 pM
EC50 [6]: 210 pM
B13: 19F6-Hu23 (antibody, human IgG1, kappa, V domains shown)
VH: B3 VH with Q16E, F41P, I49M, S66D, V68I
VL: B5 VL with I24R, T25A, T26S, S49Y
notes: humanized, human IgG1 / kappa

EC50 [9]: 250 pM
EC50 [3]: 170 pM
EC50 [4]: 80 pM
EC50 [6]: 150 pM
B15: 19F6-Hu11 (antibody, human IgG1, kappa, V domains shown)
VH: B3 VH with Q16E, S25T, F41P, I49M, N61K, S66D, V68I
VL: B5 VL with Q55R, S56P
notes: humanized, human IgG1 / kappa

EC50 [9]: 210 pM
EC50 [3]: 140 pM
EC50 [4]: 170 pM
EC50 [6]: 280 pM
B17: 19F6-Hu35V9 (antibody, human IgG1, kappa, V domains shown)
VH: B3 VH
VL: B3 VL with E42K, N76R, K79E, T85D
notes: humanized, human IgG1 / kappa
